Substitutions are numbered along the chain they refer to.
T1: CD300c antigen (11832-H08H, Sino Biological) (human, UniProt Q08708 21-183)
T1 construct: Bought antigen; also called CD300c protein; CD300 antigen-like family member C
T1 sequence (looked up): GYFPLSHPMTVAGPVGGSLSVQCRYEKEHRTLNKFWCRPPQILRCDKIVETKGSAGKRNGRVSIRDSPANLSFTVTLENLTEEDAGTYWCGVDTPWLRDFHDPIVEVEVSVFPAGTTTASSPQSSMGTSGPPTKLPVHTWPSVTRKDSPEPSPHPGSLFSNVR

T2: mouse CD300c (mouse)
T2 sequence (A2A7V7 whole entry, looked up): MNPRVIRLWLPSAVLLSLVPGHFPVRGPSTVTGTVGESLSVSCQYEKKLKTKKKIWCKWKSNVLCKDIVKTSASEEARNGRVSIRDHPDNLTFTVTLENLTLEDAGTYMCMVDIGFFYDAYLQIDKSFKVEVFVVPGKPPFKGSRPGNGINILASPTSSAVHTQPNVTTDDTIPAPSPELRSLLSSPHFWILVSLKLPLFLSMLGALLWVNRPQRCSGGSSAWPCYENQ

B1: CB301_OPALTL_B5 (antibody, V domains shown)
VH: EVQLLESGGGLVQPGGSLRLSCAASGFTFSHYAMSWVRQAPGKGLEWVSAISGSGGSTYYADSVKGRFTISRDNSKNTLYLQMNSLRAEDTAVYYCARGWDSPTLTYFDSWGQGTLVTVSS
VL: QSVLTQPPSASGTPGQRVTISCSGTSSNIGNNDVSWYQQLPGTAPKLLIYQDTKRPSGVPDRFSGSKSGTSASLAISGLRSEDEADYYCAAWDDSLSGPVFGGGTKLTVL
B2: SL18 (antibody, V domains shown)
VH: RVQLLESGGGLVQPGGSLRLSCAASGFTFSDYHMHWVRQAPGKGLEWVSTISSSGGYTYYAESVKSRFTISRDNSKNTLYLQMNSLRAEDTAVYYCARSIRLPLDYWGQGTLVTVSS
VL: QSVLTQPPSASGTPGQRVTISCSGNNIGSKGVHWYQQLPGTAPKLLIYEDSKRPSGVRDRFSGSKSGTSASLAISGLRSEDEADYYCQSYDSTKGVVFGGGTKLTVL
notes: also called anti-CD300c monoclonal antibody SL18; CB301 antibody SL18
B3: CL10 (antibody, V domains shown)
VH: EVQLLESGGGLVQPGGSLRLSCAASGFTFSSYGMHWVRQAPGKGLEWVSAISGSGGSTYYADSVKGRFTISRDNSKNTLYLQMNSLRAEDTAVYYCASGYGLMDVWGQGTLVTVSS
VL: QSVLTQPPSASGTPGQRVTISCTRSSGIIASNYVQWYQQLPGTAPKLLIYRNNQRPSGVPDRFSGSKSGTSASLAISGLRSEDEADYYCSSYAGNNNLVFGGGTKLTVL
notes: also called anti-CD300c monoclonal antibody CL10; CB301 antibody CL10
B4: CB301_OPALTL_E6 (antibody, V domains shown)
VH: B3 VH with S57Y, S98R, G99W, Y100H, G101Y, L102S, M103F, V105Y
VL: QSVLTQPPSASGTPGQRVTISCSGSSSNIGNNYVSWYQQLPGTAPKLLIYRNNQRPSGVPDRFSGSKSGTSASLAISGLRSEDEADYYCQSYDNSNVLFGGGTKLTVL

Experiments:
[1] = target: T1, CD300c antigen (11832-H08H, Sino …); assay: selection ELISA of Example 1.2, scFv periplasmic extract on coated CD300c antigen
Description: In order to select anti-CD300c monoclonal antibodies specifically binding, with high binding affinity, to a CD300c antigen, ELISA was performed using the library pool obtained by the same method as in Example 1.1. More specifically, each of a CD300c antigen and a CD300a antigen in a coating buffer (0.1 M sodium carbonate, pH 9.0) was dispensed into an ELISA plate at a concentration of 5 μg/mL per well, followed by incubation at room temperature for 3 hours, to allow the antigen to bind to the plate. The unbound antigens were removed by washing three times using phosphate buffered saline-Tween 20 (PBST), and then 350 μL of PBST supplemented with 2% bovine serum albumin (BSA) was added to each well, followed by incubation at room temperature for 1 hour and then washing again using PBST. Then, 25 μg of a periplasmic extract containing scFv obtained by the same method as in Example 1.1 was added thereto, followed by incubation for 1 hour at room temperature for antigen binding. After 1 hour, the unbound scFv was removed by washing three times using PBST, and then 4 μg/mL of an antibody for detection was added, followed by incubation again at room temperature for 1 hour. Subsequently, the unbound antibodies for detection were removed using PBST, and then HRP-conjugated anti-rabbit IgG was added, followed by incubation at room temperature for 1 hour. The unbound antibodies were removed again using PBST. Subsequently, 3,3′,5,5′-tetramethylbenzidine (TMB) solution was added, followed by incubation for 10 minutes for development. Then, 2 N sulfuric acid solution was added to terminate the development reaction, and the absorbance was measured at 450 nm to identify the antibodies specifically binding to the CD300c antigen.

mouse CD300c = target: T2, mouse CD300c; assay: cell-based or functional assay
[2] = target: T1, CD300c antigen (11832-H08H, Sino …); assay: binding ELISA, plate coated with CD300c antigen (8 µg/mL), HRP anti-Fc IgG detection
Description: In order to identify the antigen-binding ability of the anti-CD300c monoclonal antibodies produced in Example 1, binding ELISA was performed. Specifically, a CD300c antigen (11832-H08H, Sino Biological) or a CD300a antigen (12449-H08H, Sino Biological) in a coating buffer (0.1 M sodium carbonate, pH 9.0) was dispensed into an ELISA plate at a concentration of 8 μg/mL per well, followed by incubation at room temperature for 3 hours to allow the antigen to be bound to the plate. The unbound antigens were removed by washing three times using phosphate buffered saline-Tween 20 (PBST), and then 300 μL of PBST supplemented with 5% bovine serum albumin (BSA) was added to each well, followed by incubation at room temperature for 1 hour and then washing using PBST. Then, an anti-CD300c monoclonal antibody was diluted in quadruplicate and added thereto, followed by incubation for 1 hour at room temperature for antigen binding. After 1 hour, washing was performed three times using PBST to remove unbound anti-CD300c monoclonal antibody, and then 4 μg/mL of an antibody for detection (HRP conjugated anti-Fc IgG) was added, followed by incubation again at room temperature for 1 hour. Subsequently, the unbound antibody for detection was removed using PBST, and then TMB solution was added, followed by incubation for 10 minutes for development. Then, 2 N sulfuric acid solution was added to terminate the development reaction, and the absorbance was measured at 450 nm to identify the antibodies specifically binding to the CD300c antigen.

Binder	binding result [1]	cancer cell proliferation inhibitory effect, CT26 mouse colon cancer cells, 10 ug/mL antibody, 5 days, CCK-8 (mouse CD300c) [%]	EC50 [2] [µg/mL]
B1	binds	–	–
B2	–	38	0.17
B3	–	15	0.039
B4	binds	–	–

Reference: patent US20240254220A1 (CENTRICSBIO, published 2024)
